Test results published in the supplement of paper PMC9428881.
± gives the standard error.

Test: background-corrected fluorescence of 3'-dye-labeled ssDNA relative to brightest sequence (3'-GCGCG) (fraction); higher = brighter dye fluorescence (less quenching)
Summary of the method: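 By light-directed phosphoramidite synthesis, single-stranded DNA ending in a 3' Cy3 or Cy5 dye beside each of 1024 permuted pentamers was built on glass slides. Scanning at 532 or 635 nm took place before and after overnight ethylenediamine/ethanol deprotection. Data are means of 10 features per array over at least 3 syntheses. Fluorescence is corrected for unlabeled-oligo background and scaled to the brightest sequence.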

Sequence | background-corrected fluorescence (dye: Cy3 (3' terminal)) | background-corrected fluorescence (dye: Cy5 (3' terminal))
TTTTTTGATGATGCTGAGCATTTTTTTTTTTTTTTCCACT [TCACC] | 0.444 ± 0.029 | 0.322 ± 0.023
TTTTTTGAGCATGCGCATCATTTTTTTTTTTTTTTCTATG [GTATC] | 0.564 ± 0.015 | 0.383 ± 0.029
TTTTTTGCGCATCATGCTGCTTTTTTTTTTTTTTTATGAA [AAGTA] | 0.594 ± 0.017 | 0.51 ± 0.053
TTTTTTGATGCTCATGCGCATTTTTTTTTTTTTTTCAGAT [TAGAC] | 0.576 ± 0.018 | 0.469 ± 0.021
TTTTTTGCGCATCATCATGCTTTTTTTTTTTTTTTATGGA [AGGTA] | 0.712 ± 0.02 | 0.599 ± 0.041
TTTTTTCAGCATCATGATCATTTTTTTTTTTTTTTGTGCG [GCGTG] | 0.568 ± 0.056 | 0.499 ± 0.028
TTTTTTGCTCAGCAGCATGCTTTTTTTTTTTTTTTAGTTA [ATTGA] | 0.57 ± 0.0086 | 0.409 ± 0.016
TTTTTTGATGCTCATCATGATTTTTTTTTTTTTTTCAGGC [CGGAC] | 0.571 ± 0.012 | 0.469 ± 0.032
TTTTTTGCGCATCATGATGATTTTTTTTTTTTTTTATGCC [CCGTA] | 0.436 ± 0.0052 | 0.319 ± 0.02
TTTTTGCATGCTGATCAGCATTTTTTTTTTTTTTTTACGT | 0.584 ± 0.018 | 0.482 ± 0.038
TTTTTGCATGCGCATGCTGATTTTTTTTTTTTTTTTATAC [CATAT] | 0.449 ± 0.022 | 0.333 ± 0.035
TTTTTTGATGAGCATGAGCATTTTTTTTTTTTTTTCCTCT [TCTCC] | 0.431 ± 0.012 | 0.312 ± 0.026
TTTTTTGCTGATGATGCTCATTTTTTTTTTTTTTTACCAG [GACCA] | 0.516 ± 0.024 | 0.378 ± 0.028
TTTTTGCAGCAGCATCAGCATTTTTTTTTTTTTTTTTTGT [TGTTT] | 0.649 ± 0.02 | 0.46 ± 0.028
TTTTTGCAGCATGCTGATCATTTTTTTTTTTTTTTTTACG [GCATT] | 0.5 ± 0.023 | 0.398 ± 0.08
TTTTTTCATGCGCATCAGCATTTTTTTTTTTTTTTGATGT [TGTAG] | 0.653 ± 0.025 | 0.478 ± 0.04
TTTTTTGATGATGAGCATGATTTTTTTTTTTTTTTCCCTC [CTCCC] | 0.346 ± 0.012 | 0.26 ± 0.019
TTTTTTGATCAGCAGCATGATTTTTTTTTTTTTTTCGTTC [CTTGC] | 0.417 ± 0.036 | 0.321 ± 0.028
TTTTTTGATGCGCATGAGCATTTTTTTTTTTTTTTCATCT [TCTAC] | 0.48 ± 0.021 | 0.33 ± 0.034
TTTTTTCATCATCAGCATGATTTTTTTTTTTTTTTGGGTC [CTGGG] | 0.511 ± 0.03 | 0.377 ± 0.024
TTTTTTCATGCTCATGATGATTTTTTTTTTTTTTTGAGCC [CCGAG] | 0.425 ± 0.012 | 0.312 ± 0.029
TTTTTTGCTGCTGCTCATGATTTTTTTTTTTTTTTAAAGC [CGAAA] | 0.538 ± 0.018 | 0.426 ± 0.021
TTTTTTCATGCGCATCATGCTTTTTTTTTTTTTTTGATGA [AGTAG] | 0.653 ± 0.035 | 0.518 ± 0.062

Sequence | background-corrected fluorescence (dye: Cy3 (3' terminal)) | background-corrected fluorescence (dye: Cy5 (3' terminal))
TTTTTTCATGCTGAGCAGCATTTTTTTTTTTTTTTGACTT [TTCAG] | 0.501 ± 0.016 | 0.401 ± 0.021
TTTTTGCATCATGCGCATGCTTTTTTTTTTTTTTTTGATA [ATAGT] | 0.555 ± 0.039 | 0.481 ± 0.032
TTTTTTCATCATGCTCAGCATTTTTTTTTTTTTTTGGAGT [TGAGG] | 0.653 ± 0.017 | 0.537 ± 0.048
TTTTTTGCGCAGCAGCATGCTTTTTTTTTTTTTTTATTTA | 0.545 ± 0.017 | 0.432 ± 0.031
TTTTTTGATGATGCTGATGCTTTTTTTTTTTTTTTCCACA [ACACC] | 0.472 ± 0.027 | 0.375 ± 0.055
TTTTTTGAGCATCATGATGCTTTTTTTTTTTTTTTCTGCA [ACGTC] | 0.557 ± 0.03 | 0.452 ± 0.046
TTTTTGCAGCATGATCAGCATTTTTTTTTTTTTTTTTCGT [TGCTT] | 0.564 ± 0.013 | 0.432 ± 0.025
TTTTTTCATGCGCATGCTCATTTTTTTTTTTTTTTGATAG | 0.526 ± 0.03 | 0.425 ± 0.049
TTTTTTGCTCATGATGCTGCTTTTTTTTTTTTTTTAGCAA [AACGA] | 0.579 ± 0.03 | 0.427 ± 0.03
TTTTTGCAGCATGCTCATCATTTTTTTTTTTTTTTTTAGG [GGATT] | 0.612 ± 0.027 | 0.489 ± 0.054
TTTTTTGCTGATGATGCTGCTTTTTTTTTTTTTTTACCAA [AACCA] | 0.485 ± 0.029 | 0.402 ± 0.022
TTTTTTGATGATCATGCGCATTTTTTTTTTTTTTTCCGAT [TAGCC] | 0.603 ± 0.04 | 0.435 ± 0.022
TTTTTTCATCAGCATGATGATTTTTTTTTTTTTTTGGTCC [CCTGG] | 0.404 ± 0.0089 | 0.317 ± 0.03
TTTTTGCATGAGCATGCTCATTTTTTTTTTTTTTTTCTAG [GATCT] | 0.52 ± 0.027 | 0.401 ± 0.031
TTTTTGCATCATCAGCATCATTTTTTTTTTTTTTTTGGTG [GTGGT] | 0.568 ± 0.028 | 0.456 ± 0.022
TTTTTTGCGCATGCTGCTGCTTTTTTTTTTTTTTTATAAA [AAATA] | 0.567 ± 0.044 | 0.507 ± 0.069
TTTTTTGATCATCATGCTCATTTTTTTTTTTTTTTCGGAG [GAGGC] | 0.603 ± 0.02 | 0.487 ± 0.024
TTTTTTCATGAGCATGATGCTTTTTTTTTTTTTTTGCTCA [ACTCG] | 0.485 ± 0.016 | 0.386 ± 0.032
TTTTTTGCGCATGAGCATCATTTTTTTTTTTTTTTATCTG [GTCTA] | 0.55 ± 0.026 | 0.371 ± 0.036
TTTTTTCAGCAGCATCATGCTTTTTTTTTTTTTTTGTTGA [AGTTG] | 0.632 ± 0.027 | 0.548 ± 0.046
TTTTTGCATCATGATGCTGCTTTTTTTTTTTTTTTTGCAA [AACGT] | 0.594 ± 0.0062 | 0.463 ± 0.026
TTTTTTGATGCTGCTGATCATTTTTTTTTTTTTTTCAACG [GCAAC] | 0.535 ± 0.022 | 0.408 ± 0.039
TTTTTTCATCAGCATCATGCTTTTTTTTTTTTTTTGGTGA [AGTGG] | 0.627 ± 0.026 | 0.555 ± 0.04

Sequence | background-corrected fluorescence (dye: Cy3 (3' terminal)) | background-corrected fluorescence (dye: Cy5 (3' terminal))
TTTTTTCAGCATGCGCATCATTTTTTTTTTTTTTTGTATG | 0.57 ± 0.011 | 0.419 ± 0.027
TTTTTTCATGCTGATCATGATTTTTTTTTTTTTTTGACGC [CGCAG] | 0.577 ± 0.062 | 0.462 ± 0.065
TTTTTTGCTGAGCAGCATGCTTTTTTTTTTTTTTTACTTA [ATTCA] | 0.493 ± 0.06 | 0.379 ± 0.027
TTTTTTGCTGATGATGAGCATTTTTTTTTTTTTTTACCCT [TCCCA] | 0.446 ± 0.023 | 0.34 ± 0.021
TTTTTGCATGCTGATGCTGATTTTTTTTTTTTTTTTACAC [CACAT] | 0.425 ± 0.017 | 0.312 ± 0.014
TTTTTGCAGCAGCATGAGCATTTTTTTTTTTTTTTTTTCT [TCTTT] | 0.463 ± 0.024 | 0.321 ± 0.019
TTTTTGCATCATCATGCTCATTTTTTTTTTTTTTTTGGAG [GAGGT] | 0.589 ± 0.02 | 0.494 ± 0.035
TTTTTTGCTCATGATGCTCATTTTTTTTTTTTTTTAGCAG [GACGA] | 0.574 ± 0.018 | 0.42 ± 0.02
TTTTTTGATCATCAGCATGCTTTTTTTTTTTTTTTCGGTA [ATGGC] | 0.589 ± 0.071 | 0.488 ± 0.029
TTTTTTCATGCGCAGCATGATTTTTTTTTTTTTTTGATTC [CTTAG] | 0.451 ± 0.026 | 0.317 ± 0.02
TTTTTTGCTGCGCATGCGCATTTTTTTTTTTTTTTAATAT [TATAA] | 0.54 ± 0.022 | 0.413 ± 0.036
TTTTTTGCTCATCATGATCATTTTTTTTTTTTTTTAGGCG [GCGGA] | 0.633 ± 0.026 | 0.521 ± 0.049
TTTTTTCATGATGAGCAGCATTTTTTTTTTTTTTTGCCTT [TTCCG] | 0.489 ± 0.031 | 0.367 ± 0.035
TTTTTTGCTGCTGAGCAGCATTTTTTTTTTTTTTTAACTT [TTCAA] | 0.523 ± 0.0097 | 0.362 ± 0.026
TTTTTTCAGCATGATGCTGATTTTTTTTTTTTTTTGTCAC [CACTG] | 0.417 ± 0.0042 | 0.336 ± 0.022
TTTTTTCATGCTGATGATGATTTTTTTTTTTTTTTGACCC [CCCAG] | 0.387 ± 0.0053 | 0.282 ± 0.022
TTTTTTGATGATGATGAGCATTTTTTTTTTTTTTTCCCCT | 0.438 ± 0.024 | 0.312 ± 0.016
TTTTTTCATCATCAGCATCATTTTTTTTTTTTTTTGGGTG [GTGGG] | 0.627 ± 0.025 | 0.428 ± 0.024
TTTTTGCATCATGCGCATGATTTTTTTTTTTTTTTTGATC [CTAGT] | 0.442 ± 0.024 | 0.335 ± 0.028
TTTTTTCAGCATCAGCAGCATTTTTTTTTTTTTTTGTGTT | 0.565 ± 0.028 | 0.435 ± 0.082
TTTTTTGATGATGATGATGATTTTTTTTTTTTTTTCCCCC | 0.369 ± 0.018 | 0.251 ± 0.018
TTTTTTCATCAGCATGAGCATTTTTTTTTTTTTTTGGTCT [TCTGG] | 0.486 ± 0.026 | 0.391 ± 0.031
